Assay results taken from paper PMC4683621.
Several values for one entry are separate records, joined by “and”; a condition that tells them apart may be missing. Equal values may be shown once.

Molecular target: wild-type PaCLPP (Podospora anserina (endogenous in P. anserina mitochondria))
Assay: native gel or EMSA; BN-PAGE of mitochondrial protein extracts from P. anserina strains, western blot with a PaCLPP- or HsCLPP-specific antibody

stoichiometry N: 7 and 14
Substance: wild-type PaCLPP (enzyme)
